# Measured values from publication PMC7042354, “Distinct surfaces on Cdc5/PLK Polo-box domain orchestrate combinatorial substrate recognition during cell division” (Scientific Reports, 2020).
# Square brackets hold non-standard residues; d marks the D form. Ends that are not written are not given here. pS = N[C@@H](COP(=O)(O)O)C(=O)O
# T1: polo-box domain of Cdc5 (residues 418–705) (Saccharomyces cerevisiae, UniProt P32562 418-705)
# T1 construct: Cdc5, Polo-like kinase of Saccharomyces cerevisiae, residues 418-705 (polo-box domain with the preceding extension), subcloned in pPROEX HTa; Residues 418-459 disordered in the crystal; loop 594-601 possibly cleaved during crystallization of the apo form; also called Cdc5^PBD; PBD of Cdc5
# T1 sequence (looked up): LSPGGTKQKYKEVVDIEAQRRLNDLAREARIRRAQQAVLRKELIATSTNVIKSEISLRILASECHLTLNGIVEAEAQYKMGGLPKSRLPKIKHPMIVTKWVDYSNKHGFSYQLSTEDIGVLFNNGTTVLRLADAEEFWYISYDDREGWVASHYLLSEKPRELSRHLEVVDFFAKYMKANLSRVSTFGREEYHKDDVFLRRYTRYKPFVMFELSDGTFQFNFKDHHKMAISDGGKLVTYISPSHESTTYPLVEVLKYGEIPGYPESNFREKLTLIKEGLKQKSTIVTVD
# Experiments:
# cdc5-S630Q mutant = test: Proliferation assay (spot dilution) of cdc5 mutants with DNA damaging agents; format: cell-based, Saccharomyces cerevisiae; conditions: 0.4 μM 4-NQO on YPAD, 23 °C, n = 5
# Experimental: All yeast strains used in this study were constructed in the W303 background and their relevant genotypes are summarized in (Supplemental Table 2). Standard conditions and procedures were used for yeast growth, sporulation and tetrad dissection. Growth of temperature-sensitive (ts) mutants in liquid media was performed at 23 °C (permissive temperature) and 37 °C (non-permissive temperature).
# The temperature-sensitive (ts) growth behavior of cdc5 mutants was monitored on solid YPAD medium at the following temperatures: 23, 30 and 37.5 °C. Their sensitivity to DNA replication inhibitors and DNA damaging agents was assessed at 23 °C on YPAD medium containing either 100 mM hydroxyurea (HU) or 0.4 μM 4-nitroquinoline N-oxide (4-NQO). In all cases, cultures of yeast strains were diluted fivefold and subsequently spotted on solid medium, using a starting OD600 of 0.2 in the first dilution. Yeast were allowed to grow for approximately 36–72 hours at the indicated temperatures prior to scanning plates. The experiment was repeated 5 times (n = 5).
# [1] = molecular target: T1, polo-box domain of Cdc5 (residues …); test: ITC; Nano ITC; 30 µM protein in the chamber cell, 280 µM peptide in the syringe; storage buffer (50 mM TRIS-HCl pH 7.0, 200 mM NaCl, 1.4 mM 2-mercaptoethanol, 5% glycerol) with 20 mM EDTA pH 8.0; conditions: both partners purified
# [2] = molecular target: T1, polo-box domain of Cdc5 (residues …); test: crystal structure; Cdc5 polo-box domain (5 mg/mL) mixed with Dbf4 peptide at 1:10 protein:peptide, overnight at 4 °C; crystals in 20% PEG 3350, 200 mM sodium potassium tartrate, 10 mM trimethylamine hydrochloride; conditions: both partners purified
# [3] = molecular target: T1, polo-box domain of Cdc5 (residues …); test: crystal structure; Cdc5 polo-box domain (5 mg/mL) mixed with Spc72^P at 1:15 protein:peptide, overnight at 4 °C; crystals in 100 mM Bis-TRIS pH 6.5, 25% PEG3350, 200 mM MgCl2, 100 mM CsCl; conditions: both partners purified
# [4] = molecular target: T2, polo-box domain of Cdc5 pre-incubated with the Dbf4 peptide (Cdc5-Dbf4) (Saccharomyces cerevisiae | S. cerevisiae, UniProt P32562 418-705); test: saturation-transfer difference (STD) NMR and 1D 1H NMR chemical shifts; ternary sample: 20 µM Cdc5 with both Dbf4 and Spc72^P peptides (500 µM); 20 mM sodium phosphate pH 7.0, 200 mM NaCl, 20 mM EDTA, >99% D2O; 298 K; conditions: both partners purified
# T2 construct: Cdc5, Polo-like kinase of Saccharomyces cerevisiae, residues 418-705; Dbf4 of budding yeast, residues 73-96
molecule,measurement,setting,value
"O=[N+]([O-])c1cc[n+]([O-])c2ccccc12 [4-NQO, 4-nitroquinoline 1-oxide]",growth of cdc5-S630Q mutant in presence of agent,cdc5-S630Q mutant; 36–72 h,very little or no growth
same,hypersensitivity of cdc5-S630Q mutant compared with smc5-6 cells,cdc5-S630Q mutant,comparable to that of cells defective in the Smc5-6 complex
"EKKRARIERARSIEGAVQVSKGTG (Dbf4, regulatory subunit of the Dbf4-dependent kinase of budding yeast, residues 73-96; Peptide used for ITC and NMR; also called Dbf4 peptide; source: synthetic peptide, bought: GenScript) [Dbf4-derived peptide (73-96)]",Kd,[1],~500 nM
"RARIERARSIEGAVQVSKGTG (Dbf4, regulatory subunit of the Dbf4-dependent kinase of budding yeast, residues 76-96; Peptide used for crystallization; also called Dbf4 peptide; source: synthetic peptide, bought: GenScript) [Dbf4-derived peptide (76-96) from the polo-interacting region of Dbf4]",binding result,[2],binds
"SLAQS[pS]PAGSQ (Spc72, spindle pole body protein of budding yeast, residues 227-237; Peptide used for crystallization; also called Spc72^P phosphopeptide; source: synthetic peptide, bought: GenScript) [Spc72^P phosphorylated peptide (227-237) derived from the spindle-pole body protein Spc72]",binding result,[3],binds
"DKEEFLSLAQS[pS]PAGSQ (Spc72, spindle pole body protein of budding yeast; Peptide used for ITC and NMR; also called Scp72^P; Spc72^P peptide; source: synthetic peptide, bought: GenScript) [Spc72^P phosphorylated peptide (printed as 222-237)]",binding result,[1],binds
same,binding result,[4],binds
